In patent US20230381281A1, “PHARMACEUTICAL COMPOSITION COMPRISING GLUCAGON/GLP-1/GIP TRIPLE AGONIST OR LONG-ACTING CONJUGATE THEREOF FOR PREVENTING OR TREATING LUPUS-RELATED DISEASES” (HANMI PHARM. CO., LTD., priority 2020, published 2023):
Bridge positions count the residues as written; N and C are the ends. Square brackets hold non-standard residues; d marks the D form. Ends that are not written are not given here. * marks the point of attachment. Acetyl(2-(4-imidazolyl)) = O=C(Cc1c[nH]cn1)*; Aib = CC(C)(N)C(=O)O

B1: Triple agonist of SEQ ID NO: 14 (peptide)
peptide: {Acetyl(2-(4-imidazolyl))}-GQGTFTSDYSIQLDEIAVRDFVEWLKNGGPSSGAPPPSHG
B2: Triple agonist of SEQ ID NO: 89 (peptide)
peptide: {Acetyl(2-(4-imidazolyl))}-[Aib]QGTFTSDYSKYLDEKRQKEFVQWLLDTKC
modifications: bridge 15-19
B3: Triple agonist of SEQ ID NO: 91 (peptide)
peptide: {Acetyl(2-(4-imidazolyl))}-[Aib]EGTFTSDYSIAMDEIHQKDFVDWLLAEKC
modifications: bridge 15-19
B4: Triple agonist of SEQ ID NO: 2 (peptide)
peptide: H[Aib]QGTFTSDVSSYLDGQAQKEFIAWLVKGC
B5: Triple agonist of SEQ ID NO: 20 (peptide)
peptide: {Acetyl(2-(4-imidazolyl))}-GQGTFTSDLSIQYEEEAQQDFVEWLKDTGPSSGAPPPSHG
B6: Triple agonist of SEQ ID NO: 21 (peptide)
peptide: Y[Aib]QGTFTSDYSKYLDECRAKEFVQWLLDHHPSSGQPPPS
modifications: bridge 16-20
B7: Triple agonist of SEQ ID NO: 11 (peptide)
peptide: {Acetyl(2-(4-imidazolyl))}-GEGTFTSDLSKYLDSRRQQLFVQWLKAGGPSSGAPPPSHG
B8: Triple agonist of SEQ ID NO: 93 (peptide)
peptide: {Acetyl(2-(4-imidazolyl))}-[Aib]QGTFTSDYSKYLDEKRQKEFVNWLLAQKC
modifications: bridge 15-19
B9: Triple agonist of SEQ ID NO: 90 (peptide)
peptide: {Acetyl(2-(4-imidazolyl))}-[Aib]EGTFTSDYSIAMDEIHQKDFVNWLLAQKC
modifications: bridge 15-19
B10: Triple agonist of SEQ ID NO: 88 (peptide)
peptide: {Acetyl(2-(4-imidazolyl))}-[Aib]QGTFTSDYSKYLDEKRQKEFVQWLLNTKC
modifications: bridge 15-19
B11: Triple agonist of SEQ ID NO: 99 (peptide)
peptide: Y[Aib]QGTFTSDYSKALDEKAAKDFVNWLLDHHPSSGQPPPSC
modifications: bridge 16-20
B12: Triple agonist of SEQ ID NO: 95 (peptide)
peptide: Y[Aib]QGTFTSDYSKYLDEKRAKEFVQWLLCHHPSSGQPPPS
modifications: bridge 16-20
B13: Triple agonist of SEQ ID NO: 23 (peptide)
peptide: Y[Aib]QGTFTSDYSKYLDECRAKEFVQWLLAQKGKKNDWKHNIT
modifications: bridge 16-20
B14: Triple agonist of SEQ ID NO: 17 (peptide)
peptide: {Acetyl(2-(4-imidazolyl))}-GQGTFTSDLSKQMDEERAREFIEWLLAQKPSSGAPPPSHG

These binders were tested against human GCG receptor (human, UniProt P47871 26-477) (assay: cell-based or functional assay).
Chain of human GCG receptor (P47871 26-477): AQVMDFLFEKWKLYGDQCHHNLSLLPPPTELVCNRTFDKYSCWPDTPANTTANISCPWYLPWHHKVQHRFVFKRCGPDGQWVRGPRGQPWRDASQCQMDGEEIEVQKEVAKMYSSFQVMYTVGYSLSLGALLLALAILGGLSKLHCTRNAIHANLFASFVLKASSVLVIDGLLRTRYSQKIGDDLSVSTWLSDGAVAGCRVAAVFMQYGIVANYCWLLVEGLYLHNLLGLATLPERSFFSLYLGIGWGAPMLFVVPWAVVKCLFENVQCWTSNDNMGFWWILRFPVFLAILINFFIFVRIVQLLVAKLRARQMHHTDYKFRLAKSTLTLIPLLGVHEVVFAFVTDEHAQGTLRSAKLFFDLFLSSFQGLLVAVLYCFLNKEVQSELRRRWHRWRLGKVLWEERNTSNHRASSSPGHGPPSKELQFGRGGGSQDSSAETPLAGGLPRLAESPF

Binder | In vitro activity compared to native peptide (%) vs Glucagon
B1 | < 0.1%
B2 | 0.7%
B3 | 16.8%
B4 | < 0.1%
B5 | < 0.1%
B6 | 267%
B7 | < 0.1%
B8 | 0.3%
B9 | < 0.1%
B10 | 0.3%
B11 | 14.9%
B12 | 0.4%
B13 | 9.3%
B14 | < 0.1%

The binders below were run against human GLP-1 receptor (human, UniProt P43220 24-463) (assay: cell-based or functional assay).

Binder | In vitro activity compared to native peptide (%) vs GLP-1
B1 | 28%
B2 | 7.1%
B3 | 31.9%
B4 | 5.9%
B5 | < 0.1%
B6 | 17.8%
B7 | 1.4%
B8 | 5.7%
B9 | 7.4%
B10 | 9.6%
B11 | 20.9%
B12 | 2.1%
B13 | 4.01%
B14 | 0.2%

These binders were tested against T1, human GIP receptor (human, UniProt P48546 22-466) (assay: cell-based or functional assay).
T1 sequence (looked up): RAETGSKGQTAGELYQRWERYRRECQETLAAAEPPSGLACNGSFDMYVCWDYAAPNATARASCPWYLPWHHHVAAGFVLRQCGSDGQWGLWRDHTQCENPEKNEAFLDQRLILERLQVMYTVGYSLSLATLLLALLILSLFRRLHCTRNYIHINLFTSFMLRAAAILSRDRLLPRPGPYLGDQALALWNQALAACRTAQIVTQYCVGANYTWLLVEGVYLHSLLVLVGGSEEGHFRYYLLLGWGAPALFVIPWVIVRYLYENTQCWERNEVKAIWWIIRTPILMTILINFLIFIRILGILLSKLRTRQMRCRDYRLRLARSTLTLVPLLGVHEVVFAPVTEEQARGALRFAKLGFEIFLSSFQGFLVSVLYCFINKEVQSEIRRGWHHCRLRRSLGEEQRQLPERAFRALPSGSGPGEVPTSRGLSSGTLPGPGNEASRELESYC

Binder | In vitro activity compared to native peptide (%) vs GIP
B1 | < 0.1%
B2 | < 0.1%
B3 | 0.3%
B4 | < 0.1%
B5 | < 0.1%
B6 | 22.7%
B7 | < 0.1%
B8 | 0.7%
B9 | < 0.1%
B10 | < 0.1%
B11 | 57.7%
B12 | < 0.1%
B13 | < 0.1%
B14 | < 0.1%
